Measured values from US20200223906A1 (Adimab, published 2020).

B1: ADI-18998 (antibody, V domains shown)
VH: EVQLLESGPGLVKPSQTLSLTCTVSGGSINSIDYYWSWIRQPPGKGLEWIGYIYHSGSTHYRPSLKSRVTISLDKAKNEFSLSLTSVTAADTAVYFCASGPVGMATSNWFDPWGQGTLVTVSS
VL: QPVLTQPPSVSVTPGETARLPCEGDIVVTNSVHWYQQKPGQAPVLVVYYDSDRASGIPERFSGSNSGNTATLSISRVEAGDEADYYCQVWDSSTDHHVVFGGGTKLTVL
notes: full-length IgG; also called Antibody Number 346
B2: ADI-19001 (antibody, V domains shown)
VH: EVQLVESGGGLVKPGRSLRLSCTASGFNFGDYAMSWFRQAPGKGLEWVGFIRSKTYRETREYAASVKGRFTMSRDDFNRIAYLQMNSLKTEDTAMYYCTRQDDFWSGHPYYFEYWGQGTLVTVSS
VL: QPVLTQPPSASGSPGQSVTISCTGTNSDVGSYNYVSWYQHHPGKAPKLIIYDVAKRPSGVPDRFSGSKSGNTASLTVSGLQAEDEADYYCSSYAGSNDLGVFGTGTKLTVL
notes: full-length IgG; also called Antibody Number 349
B3: ADI-19014 (antibody, V domains shown)
VH: EVQLVESGPRLVKPSQTLSLTCTVYGGSISGGQNYYSWVRQPPGKGLEWIGYIFSSGTTYYKPSLKSRISISFDTSKNQFSLNLASVTAADTAVYFCARSADIDIVWGSSLYMPLWGQGTLVTVSS
VL: EIVLTQSPGTLSLSPGQRATLSCRATHIVSNSYLAWYQQKPGQAPRLLIHGVSIRATGIPDRFSGSGSGTDFTLTISRLEPEDFAVYFCQQYGTSPWTFGQGTKLEIK
notes: full-length IgG; also called Antibody Number 362
B4: ADI-18982 (antibody, V domains shown)
VH: QVQLVQSGAEVKKPGASVKVSCKASGYIFTSYGVSWVRQAPGQGLKWMGWISGYNGNTNYDQKLQGRVTMTTDTSTSTAYMELRSLTSDDTAVYYCARDSFSETGTGFPDFWGQGTLVTVSS
VL: DIQMTQSPLSLPVTLGQPASISCRSSQSLEYSDGNTYLNWFQQRPGQSPRRLIYKVSNRDSGVPDRFSGSGSGTDFTLKISRVEAEDVGVYYCMQATHRPRTFGQGTKLEIK
notes: full-length IgG; also called Antibody Number 330
B5: ADI-18995 (antibody, V domains shown)
VH: EVQLVESGPGLVKPSETLSLSCIVSGGSITSGDYYWSWLRQSPGKGLEWIGYIYHSGATFYTPSLRSRVTISTDTSKNQFSLRLSSVTAADTAVYYCASGPVGMATSNWFDPWGQGTLVTVSS
VL: SYELTQPPSVSVAPGKTATITCGGDIIRTNSVNWYQQKPGQAPLLLIYYDSDRPSGIPERFSASNSGNTATLTISRVEAGDEADYYCQVWDSGTDYHVVFGGGTKLTVQ
notes: full-length IgG; also called Antibody Number 343
B6: ADI-18981 (antibody, V domains shown)
VH: EVQLQESGSRLVKPSQTLSLTCSVSGGSLNAGGYLWSWIRQPPGKGLEWVGYIYPSGTTYYNPSLQSRISISQDRSRNQFSLSVASVTAADTAVYYCARCGNEYGEVHPFDIWGQGTTVTVSS
VL: EIVLTQSPGTLSLSPGERATLSCRGSPIVGNNYLAWYQQKPGQAPRLLIYAASIRATGIPDRFSGSGSGTDFTLTISRLEPEDFAVYYCQQYGSSPWTFGQGTKVDIK
notes: full-length IgG; also called Antibody Number 329
B7: ADI-19012 (antibody, V domains shown)
VH: EVQLVESGPGLVKPSGTLSLTCAVSGDSIVGSDWWSWIRQPPGKGLEWIGDIYHGGTTSYNPSLKSRVTMSVDKSKNQFSLKLTSVTAADTAVYYCARLSGNCSGGSCYSPFDHWGQGTLVTVSS
VL: DIQMTQSPSSLSASVGDRVTITCRASQTINGYLNWYQQRPGKAPKLLISAASSLQSGVPSRFRGSGYGTDFTLTISSLQPEDFATYFCQQSYNTVYTFGQGTKVDIK
notes: full-length IgG; also called Antibody Number 360
B8: ADI-18989 (antibody, V domains shown)
VH: EVQLVESGGGLVQPGGSLRLSCAASGFSFNTYSMNWVRQAPGKGLEWLSFISSSSHTLYYADSVKGRFTVFRDNAKHSLFLQMNGLRDEDTAVYFCARSLGSGNYDNEDQTFYYYYGMDVWGQGTTVTVSS
VL: ETTLTQSPLSLPVTPGEPASISCRSSQSLLFHSNGHNYLDWYLQKPGQSPQLLIHLGSNRASGVPDRFSGSGSGTDFTLKISRVEPEDVGVYYCMQALQTPYTFGQGTKVEIK
notes: full-length IgG
B9: ADI-18980 (antibody, V domains shown)
VH: QVQLVQSGAEVKKPGESLKISCKGFGYSFNSYWIAWVRQMPGKGLECMGIIYPGDSDTRYSPSFQGQVTISVDKSITTAYLQWSSLKVSDTAMYYCAKSNVGNTGWNYWGQGTLVTVSS
VL: EIVLTQSPATLSLSPGERATLSCRASHSVATDLAWYQQKPGQAPRLLIYDASKRATDVPARFSGSGSGTDFTLTISSLEPEDVAVYYCQEVRNWPPCTFGQGTKVDIK
notes: full-length IgG; also called Antibody Number 328
B10: ADI-19013 (antibody, V domains shown)
VH: QVQLVQSGAEVKKPGESLKISCKGSGYSFSSYWIGWVRQMPGKGLEWMGIIYPGDSDTRYSPSLQGQVTISGDKSISTAFLQWSSLKASDTAMYYCARPMTTQEGFDLWGQGTMVTVSS
VL: DIRLTQSPSSVSASVGDRVTITCRASQGISDWLAWYQQKPGKAPKLLIYAASSLQSGVPSRFSGSGSGTDFTLTISSLQPEDFATYYCQQTNSFLPLTFGGGTKVDIK
notes: full-length IgG; also called Antibody Number 361
B11: ADI-18984 (antibody, V domains shown)
VH: QVQLQESGPGLVKPSETLSLTCTVSGASVTTNTYYWTWIRQPPGKELEWIGYIHHTGNTHYNPSLESRLTMSLDTSRNQFSLNLRSATTADTAVYYCARGEHFAYWWGNWGQGALVTVSS
VL: DIRVTQSPSSVSASVGDRVTITCRASQGIARWLAWYQQKPGKAPKLLIYAASSLQGGVPSRFSGSGYGTDFTLTISSLQPEDFATYYCQQANSFPRTFGQGTKVEIK
notes: full-length IgG
B12: ADI-18990 (antibody, V domains shown)
VH: QVQLQESGPGRVKPSQTLSLTCTVSGVSVTINDYYWTWLRQSPGKGLEWIGNIYNSGSTYQNPSLQSRVTMSVDTAKNHFSLKLTSVTAADTAVYYCARDLGTANNYYFGMDVWGLGTTVTVSS
VL: DIVLTQSPATLSLSPGERATLSCRASQSVSTYLAWYQQKPGQAPRLLIYNGSNRVTGTPARFSGSGSGTDFTLTISSVEPEDFAVYYCQQRSNWPPYTFGQGTKVEIK
notes: full-length IgG
B13: ADI-18876 (antibody, V domains shown)
VH: QVQLQESGPGLVKPSQTLSLTCTVSGPSISSGDYYWTWIRQPPGKGLEWIGYIYNSGSTDYNPSLKSRITMSLDRSKNQFSLNLSSVTAADTAVYFCARDVGTLVLPTVAYYYGMDVWGQGTTVTVSS
VL: EIVLTQSPGTLSLSPGERATLSCRASESISSSYLAWYQQKPGQAPRLLIYDASSRATGIPDRFSGSGSGTDFTLTISSLEPEDFAVYYCQQYGSSPLVTFGPGTKVDIK
notes: full-length IgG from yeast
B14: ADI-18922 (antibody, V domains shown)
VH: QVQLQESGPGRVKPSETLSLTCSVADGSISSGHYYWGWVRQPPGKGLEWIATIHDSGATYYNPSLQSRVTISVDTSKNQFSLKVNSVTAADTAVYYCASRRGSGWFFDSWGQGTLVTVSS
VL: DIVLTQSPATLSVSPGERVTLSCRASHSVNYNLAWYQQKPGQAPRLLIYGSSTRATGLPARFSGSGSGTEFTLTISSLQSEDFAIYYCQQYNNWPPGGTFGQGTKVEIK
notes: full-length IgG from yeast; also called Antibody Number 276; Ab # 276
B15: ADI-18968 (antibody, V domains shown)
VH: EVQLVESGPGLVKPSQTLSLTCTVSDVLISSGDYYWSWIRQSPGKGLEWLGYIYYTGKTKYNPSLESRITMSVDTSKNQFSLRLSSVTAADTAVYFCTRDLGYSTSSPSFYYGMDVWGQGTTVTVSS
VL: EIVLTQSPATLSLSPGERATLSCRASQSVGTYLAWYQQKPGQAPRLLIYDASYRVTGIPARFSASGSATDFTLTISSLEPEDFAVYFCQQRTNWPITFGQGTRLEIK
notes: full-length IgG from yeast

molecular target: RSV F protein of subtype B (18537) on recombinant mKate-RSV (respiratory syncytial virus subtype B …, UniProt P13843 26-574); assay: cell-based or functional assay

| Binder | Neut IC50 subtype B [µg/mL] |
| --- | --- |
| B1 | 0.458 |
| B2 | 3.26 |
| B3 | > 10 |
| B4 | 0.053 |
| B5 | 0.125 |
| B6 | > 10 |
| B7 | > 10 |
| B8 | > 10 |
| B9 | > 10 |
| B10 | > 10 |
| B11 | > 10 |
| B12 | 0.845 |

molecular target: RSV F protein of subtype B (18537) on recombinant mKate-RSV virus (Respiratory syncytial virus subtype B …, UniProt P13843 26-574); assay: cell-based or functional assay

| Binder | Neut IC50 (µg/ml) subtype B [µg/mL] |
| --- | --- |
| B13 | 0.179 |
| B14 | 5.05 |
| B15 | 0.541 |

molecular target: RSV F protein of subtype A (strain A2) on recombinant mKate-RSV (respiratory syncytial virus subtype A …, UniProt P03420 26-574); assay: cell-based or functional assay

| Binder | Neut IC50 subtype A [µg/mL] |
| --- | --- |
| B1 | 0.055 |
| B2 | > 10 |
| B3 | 1.75 |
| B4 | 0.018 |
| B5 | 0.043 |
| B6 | > 10 |
| B7 | > 10 |
| B8 | > 10 |
| B9 | 3.6 |
| B10 | 9.5 |
| B11 | > 10 |
| B12 | 0.58 |

molecular target: RSV F protein of subtype A (strain A2) on recombinant mKate-RSV virus (Respiratory syncytial virus subtype A …, UniProt P03420 26-574); assay: cell-based or functional assay

| Binder | Neut IC50 (µg/ml) subtype A [µg/mL] |
| --- | --- |
| B13 | 0.037 |
| B14 | > 10 |
| B15 | 0.909 |

molecular target: T1, RSV F subtype B, furin-cleaved ectodomain stabilized in the postfusion conformation (F ΔFP) (Respiratory syncytial virus subtype B); assay: BLI, IgG on AHQ sensor, 100 nM antigen
T1 construct: extracellular domain; Trimeric soluble antigen; also called Postfusion subtype B

| Binder | Kd [nM] |
| --- | --- |
| B13 | 0.179 |
| B14 | 0.287 |
| B15 | 0.305 |

molecular target: T2, RSV F subtype B, furin-cleaved ectodomain stabilized in the prefusion conformation (DS-Cav1) (Respiratory syncytial virus subtype B); assay: BLI, IgG on AHQ sensor, 100 nM antigen
T2 construct: extracellular domain; Trimeric soluble antigen; also called Prefusion subtype B

| Binder | Kd [nM] |
| --- | --- |
| B13 | 0.316 |
| B14 | 5.27 |
| B15 | 0.602 |

molecular target: T3, RSV F subtype A, furin-cleaved ectodomain stabilized in the postfusion conformation (F ΔFP) (Respiratory syncytial virus subtype A, UniProt P03420 26-109; P03420 147-524); assay: BLI, IgG on AHQ sensor, 100 nM antigen
T3 construct: extracellular domain; Trimeric soluble antigen; also called Postfusion subtype A

| Binder | Kd [nM] |
| --- | --- |
| B13 | 1.71 |
| B14 | 0.322 |
| B15 | 0.438 |

molecular target: T4, RSV F subtype A, furin-cleaved ectodomain stabilized in the prefusion conformation (DS-Cav1) (Respiratory syncytial virus subtype A, UniProt P03420 26-524); assay: BLI, IgG on AHQ sensor, 100 nM antigen
T4 construct: extracellular domain; Trimeric soluble antigen; also called Prefusion subtype A

| Binder | Kd [nM] |
| --- | --- |
| B13 | 0.707 |
| B14 | 3.47 |
| B15 | 1.98 |

molecular target: T5, RSV F ectodomain stabilized in the postfusion conformation (F ΔFP), subtype B (respiratory syncytial virus subtype B, UniProt P13843 26-109; P13843 147-524); assay: BLI (Octet), IgG on AHQ sensor, 100 nM antigen
T5 construct: extracellular domain; Trimer; also called Postfusion subtype B

| Binder | Kd [nM] |
| --- | --- |
| B2 | 0.149 |
| B3 | 0.277 |
| B4 | 0.747 |
| B6 | 0.28 |
| B7 | 0.314 |
| B8 | 0.377 |
| B9 | 0.35 |
| B10 | 0.583 |
| B11 | 0.659 |
| B12 | 0.252 |

molecular target: T6, RSV F ectodomain stabilized in the postfusion conformation (F ΔFP), subtype A (respiratory syncytial virus subtype A, UniProt P03420 26-109; P03420 147-524); assay: BLI (Octet), IgG on AHQ sensor, 100 nM antigen
T6 construct: extracellular domain; Trimer; also called Postfusion subtype A

| Binder | Kd [nM] |
| --- | --- |
| B1 | 12.4 |
| B4 | 0.765 |
| B5 | 12.3 |
| B12 | 0.294 |
